# No end group written: not given here.
# Key:
# [1] = system: subjects with pancreatic cancer; test: Phase I/II clinical study (NCT03364400): adverse events in subjects with pancreatic cancer; format: in vivo, human
# Experimental: VT1021 was evaluated in a recently completed phase I/II open-label, multicenter, dose escalation (Part 1) and expansion (Part 2) clinical study in advanced, refractory, solid tumors including pancreatic cancer (NCT03364400). Seven subjects with pancreatic cancer were dosed in Part 1 and 32 were dosed in Part 2, 17 of which were considered evaluable as having completed ≥1 cycle of VT1021 treatment and tumor imaging during cycle 2. […] In the “expansion stage” of the VT1021-01 Study, subjects diagnosed with recurrent GBM, pancreatic cancer, ovarian cancer and other solid tumors were enrolled. They were treated with VT1021 at 11.8 mg/kg, twice weekly by IV infusion. The blood samples were collected from the clinical study at pre-treatment, 0, 2, 4, 6 hours post treatment to measure the levels of VT1021 (FIG. 2). The tumor biopsy samples prior to treatment and during treatment were collected from the clinical study to measure expression levels of biomarkers including CD36 and CD47, as well as cell surface markers for immune cell populations in the TME by immunohistochemistry assays (FIG. 3, FIG. 4, FIG. 5). The correlation between days on study and tumor shrinkage versus expression profile of CD36 and CD47 was analyzed (FIG. 4). The general expression profile of CD36 and CD47 has been assessed by IHC on Tumor Tissue Microarrays (TMAs), which contain biopsy samples collected from pancreatic cancer patients. TMAs were purchased from commercial sources, not related to the VT1021-01 clinical study. Common adverse effects (AEs) in escalation subjects with pancreatic cancer (Part 1) are shown in Table 1 The AEs shown occurred in 2 or more subjects, all cycles, maximum grade, regardless of toxicity). Of 39 pancreatic cancer subjects enrolled and dosed, 7 subjects were enrolled in the Part 1 escalation cohort. All 7 subjects reported at least one AE (regardless of causality). Four subjects had at least one AE, which was probably or possibly related to the study drug. […] Five subjects reported at least one severe adverse event (SAE) (regardless of causality). Two subjects had SAEs definitely or possibly related to study drug: infusion related reaction (grade 3), altered mental status (grade 2). Thirty-two subjects were enrolled in the Part 2 […] cohort. Thirty subjects reported at least one AE (regardless of causality). Eighteen subjects had at least one AE definitely, probably or possibly related to the study drug. Twenty subjects reported at least one SAE (regardless of causality). Two subjects had SAEs possibly related to study drug: thrombosis (grade 3), fever (grade 1)
# [2] = system: tumor microenvironment (TME) in pancreatic cancer; test: Modulation of the TME in paired tumor biopsies by multiplex ion beam image analysis, pancreatic cancer; format: in vivo, human; conditions: 8 pairs of pancreatic cancer biopsies from Parts 1 & 2
# Experimental: FIG. 5A and FIG. 5B are charts showing that VT1021 modulates the TME in pancreatic cancer.
# In the “expansion stage” of the VT1021-01 Study, subjects diagnosed with recurrent GBM, pancreatic cancer, ovarian cancer and other solid tumors were enrolled. They were treated with VT1021 at 11.8 mg/kg, twice weekly by IV infusion. The blood samples were collected from the clinical study at pre-treatment, 0, 2, 4, 6 hours post treatment to measure the levels of VT1021 (FIG. 2). The tumor biopsy samples prior to treatment and during treatment were collected from the clinical study to measure expression levels of biomarkers including CD36 and CD47, as well as cell surface markers for immune cell populations in the TME by immunohistochemistry assays (FIG. 3, FIG. 4, FIG. 5). The correlation between days on study and tumor shrinkage versus expression profile of CD36 and CD47 was analyzed (FIG. 4). The general expression profile of CD36 and CD47 has been assessed by IHC on Tumor Tissue Microarrays (TMAs), which contain biopsy samples collected from pancreatic cancer patients. TMAs were purchased from commercial sources, not related to the VT1021-01 clinical study.
# FIG. 5A and FIG. 5 B are charts showing that VT1021 modulates the TME in pancreatic cancer. Modulation of the TME by VT1021 in paired biopsies from subjects with pancreatic cancer was assessed by multiplex ion beam image analysis. Representative images from 1 of 3 regions of interest in tumor biopsies from a subject obtained pre-treatment (pre) and on-study (on). […] TSP-1+increased >2 fold in on-study biopsies compared to pre-treatment, both the CTL/Treg and M1/M2 macrophage ratios increased and the percent of M1 macrophages increased >3 fold in the TME after treatment with VT1021.
# [3] = system: animal models of ovarian, pancreatic, and breast cancer; test: Preclinical studies in animal models of cancer; format: in vivo; conditions: multiple animal models of ovarian
# [4] = Part 1 escalation cohort, 7 pancreatic cancer subjects
# [5] = Part 1 escalation, pancreatic cancer, all cycles, maximum grade
# [6] = Part 2 cohort, 32 pancreatic cancer subjects
# [7] = Part 2 expansion, pancreatic cancer, all cycles, maximum grade
substance,measurement,setting,value
"cyclic DWLPK (also: cyclic, mode of cyclisation not given here) [VT1021, 5-amino acid cyclic peptide from prosaposin; Tsp-1-inducing agent]","Urinary tract infection (AE), Grade 2",[1],2 subjects
same,subjects with SAEs definitely or possibly related to study drug,"[1]; Part 1, 7 pancreatic cancer subjects, infusion related reaction (grade 3), altered mental status (grade 2)",Two
same,dose-limiting toxicity,[1]; [4],no dose-limiting toxicity
same,subjects reporting at least one AE (regardless of causality),[1]; [4],7 subjects
same,subjects reporting at least one severe adverse event (SAE) (regardless of causality),[1]; [4],Five
same,subjects with at least one AE probably or possibly related to the study drug,[1]; [4],Four
same,"Abdominal pain (AE), Grade 1",[1]; [5],3 subjects
same,"Abdominal pain (AE), Grade 3",[1]; [5],1 subjects
same,"Abdominal pain (AE), Total",[1]; [5],4 subjects
same,"Constipation (AE), Grade 1",[1]; [5],1 subjects
same,"Constipation (AE), Grade 3",[1]; [5],1 subjects
same,"Constipation (AE), Total",[1]; [5],2 subjects
same,"Fatigue (AE), Grade 1",[1]; [5],2 subjects
same,"Fatigue (AE), Total",[1]; [5],2 subjects
same,"Infusion related reaction (AE), Grade 2",[1]; [5],1 subjects
same,"Infusion related reaction (AE), Grade 3",[1]; [5],1 subjects
same,"Infusion related reaction (AE), Total",[1]; [5],2 subjects
same,"Nausea (AE), Grade 1",[1]; [5],2 subjects
same,"Nausea (AE), Total",[1]; [5],2 subjects
same,"Thrombosis (AE), Grade 3",[1]; [5],2 subjects
same,"Thrombosis (AE), Total",[1]; [5],2 subjects
same,subjects with SAEs possibly related to study drug,"[1]; Part 2, 32 pancreatic cancer subjects, thrombosis (grade 3), fever (grade 1)",Two
same,subjects reporting at least one AE (regardless of causality),[1]; [6],Thirty
same,subjects reporting at least one SAE (regardless of causality),[1]; [6],Twenty
same,"subjects with at least one AE definitely, probably or possibly related to the study drug",[1]; [6],Eighteen
same,"Abdominal pain (AE), Grade 1",[1]; [7],3 subjects
same,"Abdominal pain (AE), Grade 2",[1]; [7],9 subjects
same,"Abdominal pain (AE), Grade 3",[1]; [7],4 subjects
same,"Abdominal pain (AE), Total",[1]; [7],16 subjects
same,"Alanine aminotransferase increased (AE), Grade 1",[1]; [7],4 subjects
same,"Alanine aminotransferase increased (AE), Grade 3",[1]; [7],2 subjects
same,"Alanine aminotransferase increased (AE), Total",[1]; [7],6 subjects
same,"Anaemia (AE), Grade 1",[1]; [7],4 subjects
same,"Anaemia (AE), Grade 2",[1]; [7],2 subjects
same,"Anaemia (AE), Grade 3",[1]; [7],1 subjects
same,"Anaemia (AE), Total",[1]; [7],7 subjects
same,"Aspartate aminotransferase increased (AE), Grade 1",[1]; [7],2 subjects
same,"Aspartate aminotransferase increased (AE), Grade 2",[1]; [7],2 subjects
same,"Aspartate aminotransferase increased (AE), Grade 3",[1]; [7],2 subjects
same,"Aspartate aminotransferase increased (AE), Total",[1]; [7],6 subjects
same,"Blood bilirubin increased (AE), Grade 2",[1]; [7],3 subjects
same,"Blood bilirubin increased (AE), Grade 3",[1]; [7],4 subjects
same,"Blood bilirubin increased (AE), Total",[1]; [7],7 subjects
same,"Constipation (AE), Grade 1",[1]; [7],4 subjects
same,"Constipation (AE), Grade 2",[1]; [7],4 subjects
same,"Constipation (AE), Total",[1]; [7],8 subjects
same,"Decreased appetite (AE), Grade 1",[1]; [7],7 subjects
same,"Decreased appetite (AE), Grade 2",[1]; [7],2 subjects
same,"Decreased appetite (AE), Grade 3",[1]; [7],2 subjects
same,"Decreased appetite (AE), Total",[1]; [7],11 subjects
same,"Diarrhoea (AE), Grade 1",[1]; [7],5 subjects
same,"Diarrhoea (AE), Grade 2",[1]; [7],3 subjects
same,"Diarrhoea (AE), Total",[1]; [7],8 subjects
same,"Fatigue (AE), Grade 1",[1]; [7],3 subjects
same,"Fatigue (AE), Grade 2",[1]; [7],8 subjects
same,"Fatigue (AE), Grade 3",[1]; [7],3 subjects
same,"Fatigue (AE), Total",[1]; [7],14 subjects
same,"Insomnia (AE), Grade 1",[1]; [7],6 subjects
same,"Insomnia (AE), Total",[1]; [7],6 subjects
same,"Nausea (AE), Grade 1",[1]; [7],10 subjects
same,"Nausea (AE), Grade 2",[1]; [7],3 subjects
same,"Nausea (AE), Grade 3",[1]; [7],1 subjects
same,"Nausea (AE), Total",[1]; [7],14 subjects
same,"Pyrexia (AE), Grade 1",[1]; [7],6 subjects
same,"Pyrexia (AE), Total",[1]; [7],6 subjects
same,"Urinary tract infection (AE), Total","[1]; human, in vivo",2 subjects
same,major adverse events (AEs),"[1]; phase I/II study, solid tumors including pancreatic cancer",no major adverse events
same,CTL/Treg ratio in the TME after treatment,[2],increased
same,M1/M2 macrophage ratio in the TME after treatment,[2],increased
same,"TSP-1+ mean intensity, increase on-study vs pre-treatment",[2],> 2 fold
same,"percent of M1 macrophages, increase in the TME after treatment",[2],> 3 fold
same,anti-tumor activity,[3],robust anti-tumor activity

# — patent publication US20250041379A1, “METHODS AND COMPOSITIONS FOR THE TREATMENT OF CANCER” (Vigeo Therapeutics, Inc., priority 2021, published 2025)
